Consider five molecules from publication PMC5451212, “RISC-interacting clearing 3’- 5’ exoribonucleases (RICEs) degrade uridylated cleavage fragments to maintain functional RISC in Arabidopsis thaliana” (eLife, 2017).

Numbering of substitutions follows the chain as printed. Numbers in names are those of the source. Where “and” joins values, the source holds several entries; their conditions need not be identical. Identical values can stand only once.

T1: MBP-AGO1 (A. thaliana, UniProt O04379 1-1048)
T1 construct: ARGONAUTE 1 (AGO1), A. thaliana; purified as described in Zhang et al., 2006b; source: E. coli, purified (amylose resin); not shown: MBP, N-terminal, kept
T1 sequence (looked up): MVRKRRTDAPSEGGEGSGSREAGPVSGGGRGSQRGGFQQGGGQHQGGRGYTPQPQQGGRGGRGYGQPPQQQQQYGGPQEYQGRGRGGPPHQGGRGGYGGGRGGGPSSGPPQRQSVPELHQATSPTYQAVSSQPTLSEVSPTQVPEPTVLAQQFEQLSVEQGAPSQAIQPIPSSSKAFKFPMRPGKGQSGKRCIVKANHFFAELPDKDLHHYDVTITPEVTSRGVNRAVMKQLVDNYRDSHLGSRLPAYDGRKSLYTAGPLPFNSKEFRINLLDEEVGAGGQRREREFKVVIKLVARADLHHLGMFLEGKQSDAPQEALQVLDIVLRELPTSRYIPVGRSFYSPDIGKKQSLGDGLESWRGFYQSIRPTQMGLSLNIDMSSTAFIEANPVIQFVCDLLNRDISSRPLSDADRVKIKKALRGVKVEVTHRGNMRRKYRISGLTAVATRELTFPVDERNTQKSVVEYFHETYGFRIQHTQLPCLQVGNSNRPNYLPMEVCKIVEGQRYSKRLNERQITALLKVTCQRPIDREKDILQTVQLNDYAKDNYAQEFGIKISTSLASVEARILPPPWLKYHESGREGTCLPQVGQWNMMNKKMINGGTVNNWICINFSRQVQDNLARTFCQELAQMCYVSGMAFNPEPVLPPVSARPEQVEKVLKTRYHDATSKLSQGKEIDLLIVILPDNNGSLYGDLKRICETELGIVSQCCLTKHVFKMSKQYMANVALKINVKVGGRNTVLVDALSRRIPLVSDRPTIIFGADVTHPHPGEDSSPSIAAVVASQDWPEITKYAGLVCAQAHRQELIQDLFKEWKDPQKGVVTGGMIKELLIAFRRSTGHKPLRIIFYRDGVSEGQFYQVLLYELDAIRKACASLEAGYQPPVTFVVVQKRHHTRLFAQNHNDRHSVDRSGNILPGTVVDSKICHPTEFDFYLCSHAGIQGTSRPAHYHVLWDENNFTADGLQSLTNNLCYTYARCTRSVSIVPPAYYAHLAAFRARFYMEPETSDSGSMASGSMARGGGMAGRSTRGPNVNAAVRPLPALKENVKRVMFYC

T2: MBP-AGO10 (A. thaliana, UniProt Q9XGW1 1-988)
T2 construct: ARGONAUTE 10 (AGO10), A. thaliana; source: E. coli BL21 (DE3), purified (amylose resin); not shown: MBP, N-terminal, kept
T2 sequence (looked up): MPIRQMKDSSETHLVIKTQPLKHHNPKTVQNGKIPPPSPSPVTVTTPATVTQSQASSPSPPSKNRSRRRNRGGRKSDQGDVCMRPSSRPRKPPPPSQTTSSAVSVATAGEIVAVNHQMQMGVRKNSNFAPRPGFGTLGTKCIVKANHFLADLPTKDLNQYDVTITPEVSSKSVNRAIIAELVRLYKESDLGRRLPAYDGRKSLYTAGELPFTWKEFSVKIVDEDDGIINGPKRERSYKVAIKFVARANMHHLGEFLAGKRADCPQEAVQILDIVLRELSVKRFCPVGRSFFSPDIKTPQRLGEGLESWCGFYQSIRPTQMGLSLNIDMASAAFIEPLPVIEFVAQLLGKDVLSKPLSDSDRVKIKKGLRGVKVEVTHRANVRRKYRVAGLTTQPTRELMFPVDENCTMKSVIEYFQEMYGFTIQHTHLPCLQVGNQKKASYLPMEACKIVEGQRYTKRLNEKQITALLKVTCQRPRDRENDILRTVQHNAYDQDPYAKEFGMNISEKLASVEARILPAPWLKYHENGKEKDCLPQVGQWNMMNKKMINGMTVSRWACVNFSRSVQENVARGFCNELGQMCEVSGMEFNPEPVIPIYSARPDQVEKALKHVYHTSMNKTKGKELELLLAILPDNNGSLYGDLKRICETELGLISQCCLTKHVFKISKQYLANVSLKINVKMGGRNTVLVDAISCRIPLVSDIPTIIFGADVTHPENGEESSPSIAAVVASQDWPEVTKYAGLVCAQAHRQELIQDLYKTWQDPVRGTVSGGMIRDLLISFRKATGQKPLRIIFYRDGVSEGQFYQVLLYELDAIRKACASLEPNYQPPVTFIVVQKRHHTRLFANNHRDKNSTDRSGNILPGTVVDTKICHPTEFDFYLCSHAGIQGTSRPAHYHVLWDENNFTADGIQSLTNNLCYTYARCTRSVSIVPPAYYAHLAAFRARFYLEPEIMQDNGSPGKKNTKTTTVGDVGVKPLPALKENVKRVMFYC

T3: MBP-AGO10 PIWI (625-988) (A. thaliana, UniProt Q9XGW1 625-988)
T3 construct: AGO10, A. thaliana, residues 625-988 (PIWI); source: E. coli BL21 (DE3), purified (amylose resin); not shown: MBP, N-terminal, kept
T3 sequence (looked up): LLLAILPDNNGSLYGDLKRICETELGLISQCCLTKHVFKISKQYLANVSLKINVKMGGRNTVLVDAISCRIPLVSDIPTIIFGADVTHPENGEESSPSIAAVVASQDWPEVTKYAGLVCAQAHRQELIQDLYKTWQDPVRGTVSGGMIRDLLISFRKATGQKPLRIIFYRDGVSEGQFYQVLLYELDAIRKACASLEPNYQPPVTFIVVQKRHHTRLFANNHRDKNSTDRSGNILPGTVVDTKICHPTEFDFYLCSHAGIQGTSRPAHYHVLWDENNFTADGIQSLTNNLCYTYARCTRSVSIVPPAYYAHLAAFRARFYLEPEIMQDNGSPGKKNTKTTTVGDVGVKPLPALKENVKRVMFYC

T4: MBP-AGO10 NC (127-336) (A. thaliana, UniProt Q9XGW1 127-336)
T4 construct: source: E. coli BL21 (DE3), purified (amylose resin); not shown: MBP, N-terminal, kept
T4 sequence (looked up): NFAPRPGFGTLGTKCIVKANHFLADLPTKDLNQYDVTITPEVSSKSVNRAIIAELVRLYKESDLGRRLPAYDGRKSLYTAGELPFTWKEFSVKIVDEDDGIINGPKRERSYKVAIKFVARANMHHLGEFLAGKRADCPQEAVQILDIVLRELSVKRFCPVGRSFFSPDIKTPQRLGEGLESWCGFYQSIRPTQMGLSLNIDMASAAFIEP

B1: 6His-SUMO-RICE1 (natural protein, A. thaliana, UniProt Q9SF21 1-200, looked up)
chain: MASFDGQGFMMVDNSWVQTKAIDVESTTDISPYLSKILEDSVWNGNRSIVFDVYWDVKSVSTKSEWRLCSVKFSTKNFCLFLRLPNPFCDNLKDLYRFFASKFVTFVGVQIQEDLALLKENHGIVIRSSLEIGKLAAKARGTPIVEFLGTRELAHKILWYDMSRLDSIQSKWDEASSNDRLEAAAIEGWLIFNVYDQLQQ
notes: RICE1 (At3g11770), A. thaliana; open reading frame in pET28a-SUMO-DC; source: E. coli BL21 (DE3), purified (Ni-NTA); not shown: His6, N-terminal, kept; SUMO, N-terminal, kept
B2: RICE1, purified recombinant (SUMO tag cleaved) (enzyme, A. thaliana, UniProt Q9SF21 1-200, looked up)
chain: B1 chain
notes: RICE1 (At3g11770), A. thaliana; full-length cDNA in pET28a-SUMO (BamHI/SacI); also called wild type RICE1; source: E. coli BL21 (DE3), purified (Ni-NTA, SUMO protease cleavage, SEC); not shown: His6, N-terminal, cleaved; SUMO, N-terminal, cleaved
B3: RICE1 D114A, purified recombinant (enzyme, A. thaliana, UniProt Q9SF21 1-200, looked up)
chain: B1 chain with D114A
notes: RICE1 (At3g11770), A. thaliana; point mutant made on pET28a-SUMO-RICE1; source: E. coli BL21 (DE3), purified (Ni-NTA, SUMO protease cleavage, SEC); not shown: His6, N-terminal, cleaved; SUMO, N-terminal, cleaved
B4: 6His-SUMO-RICE2 (natural protein, A. thaliana, UniProt Q9FNG3 1-206, looked up)
chain: MASFDGPKFKMTDGSYVQTKTIDVGSSTDISPYLSLIREDSILNGNRAVIFDVYWDVGFPETETKTKTSGWSLSSVKLSTRNLCLFLRLPKPFHDNLKDLYRFFASKFVTFVGVQIEEDLDLLRENHGLVIRNAINVGKLAAEARGTLVLEFLGTRELAHRVLWSDLGQLDSIEAKWEKAGPEEQLEAAAIEGWLIVNVWDQLSDE
notes: RICE2 (At5g06450; AtDECP), A. thaliana; open reading frame in pET28a-SUMO-DC; also called AtDECP; source: E. coli BL21 (DE3), purified (Ni-NTA); not shown: His6, N-terminal, kept; SUMO, N-terminal, kept
B5: MBP-AGO10 PAZ (337-474) (domain or fragment, A. thaliana, UniProt Q9XGW1 337-474, looked up)
chain: LPVIEFVAQLLGKDVLSKPLSDSDRVKIKKGLRGVKVEVTHRANVRRKYRVAGLTTQPTRELMFPVDENCTMKSVIEYFQEMYGFTIQHTHLPCLQVGNQKKASYLPMEACKIVEGQRYTKRLNEKQITALLKVTCQR
notes: AGO10, A. thaliana, residues 337-474 (PAZ); source: E. coli BL21 (DE3), purified (amylose resin); not shown: MBP, N-terminal, kept

Series [1] deals with T1, MBP-AGO1. As to the kind of experiment: pull-down; His-SUMO baits and MBP-fusion preys purified from E. coli; prey preabsorbed on Ni-NTA resin, then incubated with bait 1 hr at room temperature and captured on Ni-NTA; 50 mM Tris pH 7.5, 150 mM NaCl, 0.2% glycerol, 0.6% Triton X-100, 0.5 mM β-mercaptoethanol; six washes with 300 mM NaCl; blot with anti-MBP. To be noted: both partners purified.

Series [2] concerns the target T2, MBP-AGO10. Described as above. To be noted: both partners purified.
The target of series [3] is T3, MBP-AGO10 PIWI (625-988). The description is as above. The conditions noted are these: both partners purified.
Series [4] has as its target T4, MBP-AGO10 NC (127-336). The description is as above. The conditions noted are these: both partners purified.
Series [5] concerns the molecule itself. As to the kind of experiment: crystal structure; RICE1 at 20 mg/ml, hanging drop at 16°C, ~30% pentaerythritol propoxylate (5/4 PO/OH), 0.2 M KCl, 50 mM HEPES pH 7.5; space group I4(1)22, three molecules in the asymmetric unit.
Series [6] deals with the molecule itself. As to the kind of experiment: SEC; purified proteins after SUMO protease cleavage on Superdex75 (1.6 x 60), 20 mM Tris-HCl pH 7.5, 150 mM NaCl.
Series [7] concerns the molecule itself. As to the kind of experiment: SEC; purified RICE1 D114A on Hiload 16/600 Superdex 200 instead of the routinely used Superdex 75.
For series [8], the target named is B4. As to the kind of experiment: pull-down; His-SUMO baits and MBP-fusion preys purified from E. coli; prey preabsorbed on Ni-NTA resin, then incubated with bait 1 hr at room temperature and captured on Ni-NTA; 50 mM Tris pH 7.5, 150 mM NaCl, 0.2% glycerol, 0.6% Triton X-100, 0.5 mM β-mercaptoethanol; six washes with 300 mM NaCl; blot with anti-MBP. To be noted: both partners purified.

Series [9] concerns the target B1. Described as above. To be noted: both partners purified.

On to B1, for which the binding result in series [1], in series [2], in series [3] and in [4] was “binds” each time.
For B2, the “stoichiometry N” value in [5] was 6; in series [6], ~6.
With B3, the “stoichiometry N” value in series [7] was 2 and 6.
Take B4: the binding result in series [1], in series [2], in [3] and in [4] was “binds” throughout.
As for B5, the binding result in series [8] and in [9] was “binds” each time.
